B1: SEQ ID NO 29 (designed binder)
chain: VSSVPTKLEVVAATPTSLLISWDAPAVTVVYYVITYGETGGNSPVQEFTVPGSKSTATISGLSPGVDYTITVYAWYTFQYDYYVTQSSPISINYRT
B2: SEQ ID NO 33 (designed binder)
chain: VSSVPTKLEVVAATPTSLLISWDAPAVTVDYYYITYGETGGNSPVQEFTVPGSKSTATISGLSPGVDYTITVYAWYQHDFDYHVWGSSPISINYRT
B3: SEQ ID NO 31 (designed binder)
chain: VSSVPTKLEVVAATPTSLLISWDAPAVTVVFYVITYGETGSYSGWQEFEVPGSKSTATISGLSPGVDYTITVYAYYYQNPESYYSPISINYRT
B4: SEQ ID NO 34 (designed binder)
chain: VSSVPTKLEVVAATPTSLLISWDAPAVTVHYYVITYGETGWWGPVQEFTVPGSKSTATISGLSPGVDYTITVYAYWKYSYKYSPISINYRT
B5: SEQ ID NO 35 (designed binder)
chain: VSSVPTKLEVVAATPTSLLISWDAPAVTVDYYVITYGETGAFGSGQEFEVPGSKSTATISGLSPGVDYTITVYAKWMYSYMYNPISINYRT
B6: SEQ ID NO 43 (designed binder)
chain: VSSVPTKLEVVAATPTSLLISWDAPAVTVVHYHITYGETGGNSPVQEFTVPGSKSTATISGLSPGVDYTITVYADWQYSYMYSPISINYRT
B7: SEQ ID NO 40 (designed binder)
chain: VSSVPTKLEVVAATPTSLLISWDAPAVYHYVYLITYGETGGNSPVQEFTVPGSKSTATISGLSPGVDYTITVYAKWKYSYQYSPISINYRT
B8: SEQ ID NO 36 (designed binder)
chain: VSSVPTKLEVVAATPTSLLISWDAPAVTVVYYFITYGETGGNSPVQEFTVPGSKSTATISGLSPGVDYTITVYAWSYELTGDYLQQFSPISINYRT
B9: SEQ ID NO 28 (designed binder)
chain: VSSVPTKLEVVAATPTSLLISWDAPAVTVDHYVITYGETGGYPSPVQTFTVPGSKSTATISGLSPGVDYTITVYAWDYDWYAIGSPISINYRT
B10: SEQ ID NO 32 (designed binder)
chain: VSSVPTKLEVVAATPTSLLISWDAPAVTVDLYFITYGETGGNSPVQEFTVPGSKSTATISGLSPGVDYTITVYAWYYGYYGPQYTSPISINYRT
B11: SEQ ID NO 30 (designed binder)
chain: VSSVPTKLEVVAATPTSLLISWDAPAVTVDFYFITYGETGGNSPVQEFTVPGSKSTATISGLSPGVDYTITVYAWDNWDDYYYSPISINYRT
B12: SEQ ID NO 251 (designed binder)
chain: NVSPPRRARVTDATETTITISWRTKTETITEFDVGADPGKGHAIQRTIKPDVRSYTITGLQPGTSYLIGLRTLNRVLHYPVVIDAST
B13: SEQ ID NO 253 (designed binder)
chain: NVSPPRRARVTDATETTITISWRTKTETITRFYVSAQPRFYYYNIQRTIKPDVRSYTITGLQPGTDYTIGLYTLGVYMHYPVVIDAST
B14: SEQ ID NO 252 (designed binder)
chain: NVSPPRRARVTDATETTITISWRTKTETITSFRVDAGPGVAGSIQRTIKPDVRSYTITGLQPGTYYQIQLAALAYGYYPVVIDAST
B15: SEQ ID NO 275 (designed binder)
chain: NVSPPRRARVTDATETTITISWRTKTETITSFYVDAGPWYRPDAYEYIQRTIKPDVRSYTITGLQPGTGYSIQLYTLYAYAYLYPVVIDAST
B16: SEQ ID NO 267 (designed binder)
chain: NVSPPRRARVTDATETTITISWRTKTETITWFYVSAFPLLVDGIQRTIKPDVRSYTITGLQPGTYYGINLYTLSSYPVVIDAST
B17: SEQ ID NO 273 (designed binder)
chain: NVSPPRRARVTDATETTITISWRTKTETITSFWVHAYPSGASGGIQRTIKPDVRSYTITGLQPGTNYGIALATLTHYYTYSPVVIDAST
B18: SEQ ID NO 272 (designed binder)
chain: NVSPPRRARVTDATETTITISWRTKTETITAFYVGAHPWYNLEIQRTIKPDVRSYTITGLQPGTGYVISLYTLWHHNEAPVVIDAST
B19: SEQ ID NO 256 (designed binder)
chain: NVSPPRRARVTDATETTITISWRTKTETITSFYVMAQPTNYYGQSTYIQRTIKPDVRSYTITGLQPGTYYGIQLYTLMYRASAPVVIDAST
B20: SEQ ID NO 255 (designed binder)
chain: NVSPPRRARVTDATETTITISWRTKTETITEFFVMAEPYYGEGYYIQRTIKPDVRSYTITGLQPGTSYSINLYTLKRPYLYPVVIDAST
B21: SEQ ID NO 270 (designed binder)
chain: NVSPPRRARVTDATETTITISWRTKTETITAFYVHAVPMLWVVNGIQRTIKPDVRSYTITGLQPGTSYTINLETLRMSSHYYPVVIDAST
B22: SEQ ID NO 276 (designed binder)
chain: NVSPPRRARVTDATETTITISWRTKTETITLFYVYAYPRYYPGIQRTIKPDVRSYTITGLQPGTSYSIYLSTLWDTKGYPVVIDAST
B23: SEQ ID NO 266 (designed binder)
chain: NVSPPRRARVTDATETTITISWRTKTETITRFSVLAYPSKRTTYTPIQRTIKPDVRSYTITGLQPGTGYTIRLYTLSPYYWVYPVVIDAST
B24: SEQ ID NO 274 (designed binder)
chain: NVSPPRRARVTDATETTITISWRTKTETITGFHVFASPWYSGSQSIQRTIKPDVRSYTITGLQPGTTYYIGLNTLYIPGHEPPVVIDAST
B25: SEQ ID NO 259 (designed binder)
chain: NVSPPRRARVTDATETTITISWRTKTETITYFSVYANPMYPFYIQRTIKPDVRSYTITGLQPGTYYEIYLGTLYYFATYPVVIDAST
B26: SEQ ID NO 254 (designed binder)
chain: NVSPPRRARVTDATETTITISWRTKTETITYFSVEAYPRWYALIQRTIKPDVRSYTITGLQPGTSYYIYLWTLMMDTSSPVVIDAST
B27: SEQ ID NO 271 (designed binder)
chain: NVSPPRRARVTDATETTITISWRTKTETITSFYVRALPVSAWPIQRTIKPDVRSYTITGLQPGTGYNIGLVTLYYGASYVPVVIDAST
B28: SEQ ID NO 268 (designed binder)
chain: NVSPPRRARVTDATETTITISWRTKTETITYFYVYAKPRYINSIQRTIKPDVRSYTITGLQPGTDYSIYLDTLYWGGEYGPVVIDAST
B29: SEQ ID NO 265 (designed binder)
chain: NVSPPRRARVTDATETTITISWRTKTETITYFHVNAQPSSPPWIQRTIKPDVRSYTITGLQPGTYYGISLYTLSWRGEYHPVVIDAST
B30: SEQ ID NO 258 (designed binder)
chain: NVSPPRRARVTDATETTITISWRTKTETITYFSVLAHPLEVSSYSIQRTIKPDVRSYTITGLQPGTGYRIFLSTLRWYYGMPVVIDAST
B31: SEQ ID NO 263 (designed binder)
chain: NVSPPRRARVTDATETTITISWRTKTETITQFWVLAGPSVWTGRMSIQRTIKPDVRSYTITGLQPGTTYYIGLYTLQYYEYSPVVIDAST
B32: SEQ ID NO 277 (designed binder)
chain: NVSPPRRARVTDATETTITISWRTKTETITTFMVVAYPMFQYRIQRTIKPDVRSYTITGLQPGTSYTIYLQTLGYASWYPVVIDAST
B33: SEQ ID NO 261 (designed binder)
chain: NVSPPRRARVTDATETTITISWRTKTETITYFKVRAYPAYNYGGWSIQRTIKPDVRSYTITGLQPGTYYSIYLDTLYLGAYWYPVVIDAST
B34: SEQ ID NO 262 (designed binder)
chain: NVSPPRSARVTDATETTITISWRTKTETITYFVVGAFPAYSAHVDIQRTIKPDVRSYTITGLQPGTGYIINLETLINATGYPVVIDAST
B35: SEQ ID NO 260 (designed binder)
chain: NVSPPRRARVTDATETTITISWRTKTETITYFYVSAYPYYVAYDIQRTIKPDVRSYTITGLQPGTYYDINLSTLSYSDNSPVVIDAST
B36: SEQ ID NO 257 (designed binder)
chain: NVSPPRRARVTDATETTITISWRTKTETITTFDVYAYPGYGGSYWSIQRTIKPDVRSYTITGLQPGTSYEIELETLHYSHAYPVVIDAST
B37: SEQ ID NO 269 (designed binder)
chain: NVSPPRRARVTDATETTITISWRTKTETITAFNVYASPEYWRYGYFRFIQRTIKPDVRSYTITGLQPGTGYYIYLYTLYHKYGYYPVVIDAST
B38: SEQ ID NO 264 (designed binder)
chain: NVSPPRRARVTDATETTITISWRTKTETITTFRVWARPYLYYWIQRTIKPDVRSYTITGLQPGTHYDIGLSTLSSTWYYPVVIDAST

The binders below were run against T1, human Abl SH2 domain (human, UniProt P00519 112-232, limits assumed) (assay: phage display selection hit, BL1 library).
T1 construct: domain: SH2 domain; poly-histidine tagged in selection; tag cleaved for SPR and crystals; also called Ab1SH2; SH2 domain of Abl kinase
T1 sequence (looked up): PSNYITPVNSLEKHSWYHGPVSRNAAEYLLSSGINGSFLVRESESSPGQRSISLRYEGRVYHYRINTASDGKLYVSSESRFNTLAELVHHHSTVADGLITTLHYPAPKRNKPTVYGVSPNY

Binding result, binds:
B1
B2
B3
B4
B5
B6
B7
B8
B9
B10
B11

The binders below were run against T2, human serum albumin (human, UniProt P02768 25-609) (assay: cradle library selection hit).
T2 construct: also called HSA
T2 sequence (P02768 25-609 limits assumed): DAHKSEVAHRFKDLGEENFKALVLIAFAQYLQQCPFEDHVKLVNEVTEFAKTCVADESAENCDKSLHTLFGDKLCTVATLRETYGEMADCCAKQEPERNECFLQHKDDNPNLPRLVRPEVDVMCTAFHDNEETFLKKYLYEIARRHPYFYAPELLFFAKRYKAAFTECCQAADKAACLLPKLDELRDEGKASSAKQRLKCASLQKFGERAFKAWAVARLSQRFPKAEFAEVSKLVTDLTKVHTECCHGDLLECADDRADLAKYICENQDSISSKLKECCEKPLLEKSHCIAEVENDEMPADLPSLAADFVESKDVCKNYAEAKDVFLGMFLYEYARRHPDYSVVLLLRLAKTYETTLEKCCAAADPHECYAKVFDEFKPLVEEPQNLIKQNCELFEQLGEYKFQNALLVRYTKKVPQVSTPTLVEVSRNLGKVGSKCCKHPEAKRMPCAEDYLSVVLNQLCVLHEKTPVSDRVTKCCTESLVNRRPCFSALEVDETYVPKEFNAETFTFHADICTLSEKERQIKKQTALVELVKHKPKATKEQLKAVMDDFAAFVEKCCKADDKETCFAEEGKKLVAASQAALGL

Binding result, binds:
B12
B13
B14
B15
B16
B17
B18
B19
B20
B21
B22
B23
B24
B25
B26
B27
B28
B29
B30
B31
B32
B33
B34
B35
B36
B37
B38

— US20140057807A1 (UNIVERSITY OF CHICAGO, published 2014)
